Where a chain is given by its changes, count along the chain named.
T1: h GALR3 (Homo sapiens, UniProt O60755)
T1 sequence (O60755 1-368): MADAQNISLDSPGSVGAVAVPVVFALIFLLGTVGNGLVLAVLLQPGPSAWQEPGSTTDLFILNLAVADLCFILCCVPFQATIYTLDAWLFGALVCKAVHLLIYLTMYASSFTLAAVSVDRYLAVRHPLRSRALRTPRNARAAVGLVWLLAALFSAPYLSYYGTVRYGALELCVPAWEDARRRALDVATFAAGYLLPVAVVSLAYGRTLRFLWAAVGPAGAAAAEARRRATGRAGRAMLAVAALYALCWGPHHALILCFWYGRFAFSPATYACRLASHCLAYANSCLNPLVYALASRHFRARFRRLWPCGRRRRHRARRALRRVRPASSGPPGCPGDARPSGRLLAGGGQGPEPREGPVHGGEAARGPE

T2: h Y1 (Homo sapiens, UniProt P25929)
T2 construct: expressed in transfected cells; host or cells: COS-7
T2 sequence (P25929 1-384): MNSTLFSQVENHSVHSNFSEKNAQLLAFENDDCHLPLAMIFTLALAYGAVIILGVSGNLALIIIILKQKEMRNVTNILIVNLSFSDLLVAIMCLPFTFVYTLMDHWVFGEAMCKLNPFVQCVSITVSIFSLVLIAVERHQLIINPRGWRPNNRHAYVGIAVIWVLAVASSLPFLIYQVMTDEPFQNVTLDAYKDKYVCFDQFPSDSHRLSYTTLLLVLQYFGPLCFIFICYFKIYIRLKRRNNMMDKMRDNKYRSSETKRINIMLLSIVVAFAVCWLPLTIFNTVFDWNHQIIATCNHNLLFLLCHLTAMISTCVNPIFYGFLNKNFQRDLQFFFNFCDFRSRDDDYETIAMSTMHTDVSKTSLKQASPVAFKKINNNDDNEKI

T3: h α2A adr (Homo sapiens, UniProt P08913)
T3 construct: expressed in transfected cells; host or cells: COS-7
T3 sequence (P08913 1-465): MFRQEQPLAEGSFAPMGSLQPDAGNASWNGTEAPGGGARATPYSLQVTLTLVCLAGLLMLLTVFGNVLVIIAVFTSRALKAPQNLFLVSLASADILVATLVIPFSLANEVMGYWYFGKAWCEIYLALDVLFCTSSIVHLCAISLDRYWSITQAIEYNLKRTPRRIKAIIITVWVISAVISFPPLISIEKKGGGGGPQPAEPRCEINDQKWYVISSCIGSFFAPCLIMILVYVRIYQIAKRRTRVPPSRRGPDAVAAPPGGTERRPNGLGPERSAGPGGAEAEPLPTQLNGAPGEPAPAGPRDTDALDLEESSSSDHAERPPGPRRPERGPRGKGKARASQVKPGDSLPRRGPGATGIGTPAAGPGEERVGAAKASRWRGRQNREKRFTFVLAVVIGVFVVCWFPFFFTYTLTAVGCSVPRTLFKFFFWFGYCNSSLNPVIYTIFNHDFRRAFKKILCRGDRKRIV

B1: cGαq/z5: chimeric Gα subunit: C-terminal final 5 amino acids of C. elegans Gαq replaced with those of hGαz (SEQ ID NO: 1) (protein)
chain: MACCLSEEAREQKRINQEIEKQLQRDKRNARRELKLLLLGTGESGKSTFIKQMRIIHGQGYSEEDKRAHIRLVYQNVFMAIQSMIRAMDTLDIKFGNESEELQEKAAVVREVDFESVTSFEEPYVSYIKELWEDSGIQECYDRRREYQLTDSAKYYLSDLRRLAVPDYLPTEQDILRVRVPTTGIIEYPFDLEQIIFRMVDVGGQRSERRKWIHCFENVTSIMFLVALSEYDQVLVECDNENRMEESKALFRTIITYPWFTNSSVILFLNKKDLLEEKILYSHLADYFPEYDGPPRDPIAAREFILKMFVDLNPDADKIIYSHFTCATDTENIRFVFAAVKDTILQHNLKYIGLC
modifications: C. elegans
B2: cGαq/z9: C. elegans Gαq with Gαz portion of the C-terminal tail extended to 9 amino acids (SEQ ID NO: 2) (protein)
chain: B1 chain with H347N
modifications: C. elegans

What was measured:
Experiment in all cases: Calcium mobilization (FLIPR, Fluo-3) in transfected COS-7 cells
Assay type in all cases: cell-based
h NPFF1 = molecular target: T4, h NPFF1 (Homo sapiens, UniProt Q9GZQ6); settings: h NPFF1 + chimera in COS-7; agonist NPFF, max 10 μM
T4 construct: expressed in transfected cells; host or cells: COS-7
T4 sequence (Q9GZQ6 whole entry): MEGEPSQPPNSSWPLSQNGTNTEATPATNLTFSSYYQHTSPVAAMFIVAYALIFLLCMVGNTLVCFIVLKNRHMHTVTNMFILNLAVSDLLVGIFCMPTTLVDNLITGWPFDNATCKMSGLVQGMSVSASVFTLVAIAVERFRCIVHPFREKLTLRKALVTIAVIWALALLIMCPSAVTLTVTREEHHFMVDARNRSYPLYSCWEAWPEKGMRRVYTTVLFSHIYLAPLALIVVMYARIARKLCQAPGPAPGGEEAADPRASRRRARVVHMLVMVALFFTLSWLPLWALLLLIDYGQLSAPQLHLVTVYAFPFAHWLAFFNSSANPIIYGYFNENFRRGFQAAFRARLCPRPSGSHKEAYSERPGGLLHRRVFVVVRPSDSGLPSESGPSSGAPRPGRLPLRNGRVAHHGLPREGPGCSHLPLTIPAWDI
Outline: (§1)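 Read-out is maximum change in Fluo-3 fluorescence (FLIPR, 488 nm excitation) over 3 min at room temperature after agonist addition; concentration-response curves were fitted with the Hill equation. Cells were COS-7 transiently expressing the GPCR plus chimeric G protein(s).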

h 5HT6 = h 5HT6 (Homo sapiens, UniProt P50406); settings: h 5HT6 + chimera in COS-7; agonist 5HT, max 100 μM
Chain of h 5HT6 (P50406 whole entry): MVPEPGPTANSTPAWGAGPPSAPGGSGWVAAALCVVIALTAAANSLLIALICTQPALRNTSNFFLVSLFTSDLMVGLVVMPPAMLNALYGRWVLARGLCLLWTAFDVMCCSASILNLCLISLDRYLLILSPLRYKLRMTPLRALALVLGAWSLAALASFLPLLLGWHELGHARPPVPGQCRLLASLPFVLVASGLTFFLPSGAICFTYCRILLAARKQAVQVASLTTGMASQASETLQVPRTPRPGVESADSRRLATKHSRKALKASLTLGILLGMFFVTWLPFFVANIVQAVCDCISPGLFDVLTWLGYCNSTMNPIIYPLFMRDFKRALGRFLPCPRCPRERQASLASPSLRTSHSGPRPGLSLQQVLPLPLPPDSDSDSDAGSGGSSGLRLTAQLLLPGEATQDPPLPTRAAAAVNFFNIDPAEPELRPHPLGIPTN
Outline: as §1

h GALR3 = molecular target: T1, h GALR3; settings: h GALR3 + chimera in COS-7; agonist GAL, max 10 μM
Outline: as §1

h Y1 = molecular target: T2, h Y1; settings: h Y1 + chimera in COS-7; agonist NPY, max 10 μM
Outline: as §1

h α2A adr = molecular target: T3, h α2A adr; settings: h α2A adr + chimera in COS-7; agonist NE, max 100 μM
Outline: as §1

h D3 = h D3 (Homo sapiens, UniProt P35462); settings: h D3 + chimera in COS-7; agonist DA, max 100 μM
Chain of h D3 (P35462 whole entry): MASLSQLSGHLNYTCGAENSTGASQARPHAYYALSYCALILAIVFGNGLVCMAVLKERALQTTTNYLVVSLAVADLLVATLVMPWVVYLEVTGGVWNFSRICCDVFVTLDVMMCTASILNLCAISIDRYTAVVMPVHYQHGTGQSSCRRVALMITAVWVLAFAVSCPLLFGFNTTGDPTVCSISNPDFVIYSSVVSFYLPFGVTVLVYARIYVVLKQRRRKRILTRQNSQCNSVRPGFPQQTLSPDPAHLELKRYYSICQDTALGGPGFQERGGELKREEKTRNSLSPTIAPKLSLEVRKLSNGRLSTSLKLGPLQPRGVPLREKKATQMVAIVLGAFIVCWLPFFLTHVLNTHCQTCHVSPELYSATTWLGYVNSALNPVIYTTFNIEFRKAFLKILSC
Outline: as §1

| Molecule | MAXIMAL SIGNAL (FLUORESCENCE UNITS) (h NPFF1) | MAXIMAL SIGNAL (FLUORESCENCE UNITS) (h 5HT6) | MAXIMAL SIGNAL (FLUORESCENCE UNITS) (h GALR3) | MAXIMAL SIGNAL (FLUORESCENCE UNITS) (h Y1) | MAXIMAL SIGNAL (FLUORESCENCE UNITS) (h α2A adr) | MAXIMAL SIGNAL (FLUORESCENCE UNITS) (h D3) |
| --- | --- | --- | --- | --- | --- | --- |
| B1 | 6593 fluorescence units | 1289 fluorescence units | 1523 fluorescence units | 7722 fluorescence units | 7575 fluorescence units | 0 fluorescence units |
| B2 | 2966 fluorescence units | 2287 fluorescence units | 2050 fluorescence units | 6728 fluorescence units | 3040 fluorescence units | 121 fluorescence units |
